B1: Cadherin-related family member 5 (Homo sapiens), Q9HBB8 (parent)
chain: MGSWALLWPPLLFTGLLVRPPGTMAQAQYCSVNKDIFEVEENTNVTEPLVDIHVPEGQEVTLGALSTPFAFRIQGNQLFLNVTPDYEEKSLLEAQLLCQSGGTLVTQLRVFVSVLDVNDNAPEFPFKTKEIRVEEDTKVNSTVIPETQLQAEDRDKDDILFYTLQEMTAGASDYFSLVSVNRPALRLDRPLDFYERPNMTFWLLVRDTPGENVEPSHTATATLVLNVVPADLRPPWFLPCTFSDGYVCIQAQYHGAVPTGHILPSPLVLRPGPIYAEDGDRGINQPIIYSIFRGNVNGTFIIHPDSGNLTVARSVPSPMTFLLLVKGQQADLARYSVTQVTVEAVAAAGSPPRFPQRLYRGTVARGAGAGVVVKDAAAPSQPLRIQAQDPEFSDLNSAITYRITNHSHFRMEGEVVLTTTTLAQAGAFYAEVEAHNTVTSGTATTVIEIQVSEQEPPSTDVPPSPEAGGTTGPWTSTTSEVPRPPEPSQGPSTTSSGGGTGPHPPSGTTLRPPTSSTPGGPPGAENSTSHQPATPGGDTAQTPKPGTSQPMPPGVGTSTSHQPATPSGGTAQTPEPGTSQPMPPSMGTSTSHQPATPGGGTAQTPEAGTSQPMPPGMGTSTSHQPTTPGGGTAQTPEPGTSQPMPLSKSTPSSGGGPSEDKRFSVVDMAALGGVLGALLLLALLGLAVLVHKHYGPRLKCCCGKAPEPQPQGFDNQAFLPDHKANWAPVPSPTHDPKPAEAPMPAEPAPPGPASPGGAPEPPAAARAGGSPTAVRSILTKERRPEGGYKAVWFGEDIGTEADVVVLNAPTLDVDGASDSGSGDEGEGAGRGGGPYDAPGGDDSYI
partner: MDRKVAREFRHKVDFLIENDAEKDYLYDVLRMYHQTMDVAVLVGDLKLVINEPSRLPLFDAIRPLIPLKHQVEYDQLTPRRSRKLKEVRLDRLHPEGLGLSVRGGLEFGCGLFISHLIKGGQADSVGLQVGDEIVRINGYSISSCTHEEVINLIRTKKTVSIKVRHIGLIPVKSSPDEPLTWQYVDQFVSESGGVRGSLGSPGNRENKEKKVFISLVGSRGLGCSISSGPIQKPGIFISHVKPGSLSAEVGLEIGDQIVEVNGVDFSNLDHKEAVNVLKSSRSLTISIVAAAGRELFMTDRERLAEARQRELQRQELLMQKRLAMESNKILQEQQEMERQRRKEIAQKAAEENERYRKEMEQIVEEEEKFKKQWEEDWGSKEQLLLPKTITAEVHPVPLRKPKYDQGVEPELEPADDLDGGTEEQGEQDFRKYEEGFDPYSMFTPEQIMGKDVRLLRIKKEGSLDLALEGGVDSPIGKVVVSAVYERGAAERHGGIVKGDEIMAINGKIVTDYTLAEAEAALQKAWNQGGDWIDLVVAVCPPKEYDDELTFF
B2: Cadherin-related family member 5 (Homo sapiens), Q9HBB8-2 (parent)
chain: MGSWALLWPPLLFTGLLVRPPGTMAQAQYCSVNKDIFEVEENTNVTEPLVDIHVPEGQEVTLGALSTPFAFRIQGNQLFLNVTPDYEEKSLLEAQLLCQSGGTLVTQLRVFVSVLDVNDNAPEFPFKTKEIRVEEDTKVNSTVIPETQLQAEDRDKDDILFYTLQEMTAGASDYFSLVSVNRPALRLDRPLDFYERPNMTFWLLVRDTPGENVEPSHTATATLVLNVVPADLRPPWFLPCTFSDGYVCIQAQYHGAVPTGHILPSPLVLRPGPIYAEDGDRGINQPIIYSIFRGNVNGTFIIHPDSGNLTVARSVPSPMTFLLLVKGQQADLARYSVTQVTVEAVAAAGSPPRFPQRLYRGTVARGAGAGVVVKDAAAPSQPLRIQAQDPEFSDLNSAITYRITNHSHFRMEGEVVLTTTTLAQAGAFYAEVEAHNTVTSGTATTVIEIQVSEQEPPSTGGGPSEDKRFSVVDMAALGGVLGALLLLALLGLAVLVHKHYGPRLKCCCGKAPEPQPQGFDNQAFLPDHKANWAPVPSPTHDPKPAEAPMPAEPAPPGPASPGGAPEPPAAARAGGSPTAVRSILTKERRPEGGYKAVWFGEDIGTEADVVVLNAPTLDVDGASDSGSGDEGEGAGRGGGPYDAPGGDDSYI
partner: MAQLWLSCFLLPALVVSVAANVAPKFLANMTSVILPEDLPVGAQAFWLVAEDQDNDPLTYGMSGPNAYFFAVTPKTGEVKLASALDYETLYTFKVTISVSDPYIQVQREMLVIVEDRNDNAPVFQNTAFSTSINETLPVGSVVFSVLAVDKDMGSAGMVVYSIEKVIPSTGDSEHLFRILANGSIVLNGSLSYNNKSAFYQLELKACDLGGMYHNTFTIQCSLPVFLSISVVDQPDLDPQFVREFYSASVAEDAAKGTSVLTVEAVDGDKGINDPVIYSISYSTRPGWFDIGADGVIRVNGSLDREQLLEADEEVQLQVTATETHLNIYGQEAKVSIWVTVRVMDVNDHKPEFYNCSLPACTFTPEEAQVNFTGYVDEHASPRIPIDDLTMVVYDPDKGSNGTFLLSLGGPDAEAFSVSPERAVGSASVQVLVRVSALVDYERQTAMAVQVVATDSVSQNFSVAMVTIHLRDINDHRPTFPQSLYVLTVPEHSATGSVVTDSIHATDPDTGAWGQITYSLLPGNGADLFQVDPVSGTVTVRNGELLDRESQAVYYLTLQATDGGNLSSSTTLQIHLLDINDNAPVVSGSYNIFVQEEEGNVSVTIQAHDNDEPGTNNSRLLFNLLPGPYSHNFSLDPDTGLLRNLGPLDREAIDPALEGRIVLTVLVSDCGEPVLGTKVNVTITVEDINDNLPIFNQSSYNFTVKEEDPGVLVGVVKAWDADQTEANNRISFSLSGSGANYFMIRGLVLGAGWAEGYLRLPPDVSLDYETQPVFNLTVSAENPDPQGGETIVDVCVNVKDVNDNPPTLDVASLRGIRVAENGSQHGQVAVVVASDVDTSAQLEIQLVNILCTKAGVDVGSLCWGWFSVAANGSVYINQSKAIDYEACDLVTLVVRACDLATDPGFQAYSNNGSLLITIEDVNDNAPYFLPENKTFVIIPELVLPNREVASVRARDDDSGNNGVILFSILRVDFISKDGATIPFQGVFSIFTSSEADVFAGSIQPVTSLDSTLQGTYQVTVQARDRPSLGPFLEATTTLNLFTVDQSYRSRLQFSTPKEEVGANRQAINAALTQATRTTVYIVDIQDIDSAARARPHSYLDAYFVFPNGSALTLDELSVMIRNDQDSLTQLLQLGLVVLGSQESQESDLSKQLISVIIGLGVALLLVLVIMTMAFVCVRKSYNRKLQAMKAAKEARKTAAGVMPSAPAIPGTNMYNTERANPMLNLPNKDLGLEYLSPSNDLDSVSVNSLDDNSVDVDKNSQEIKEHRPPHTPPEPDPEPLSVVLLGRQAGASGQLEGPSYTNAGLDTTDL
B3: Cadherin-related family member 2 (Homo sapiens), Q9BYE9 (parent)
chain: B2 partner
partner: B1 partner

The variants in one experiment derive from B1. The note with it: with USH1C.
Turning to I845R, the “effect of a mutation on the interaction” value was “disrupting interaction strength”.

The variants in another experiment derive from B2. As to conditions: with cdhr2_human CDHR2, Q9BYE9.
Turning to R109G, the “effect of a mutation on the interaction” value was “disrupting interaction strength”.

A further experiment covers variants of B3. The note with it: with USH1C.
L1310R: the “effect of a mutation on the interaction” value is recorded as “disrupting interaction strength”.

Source of the values: IntAct's records for PubMed 24725409.
